Changes are numbered by the printed parent chain. Numbers in names are those of the source. Where “and” joins values, the source holds several entries; their conditions need not be identical. Identical values can stand only once.
B1: Glycine max (soybean) EPSP synthase DGT-1 v5, native, SEQ ID NO: 59 (Glycine max) (protein)
chain: MASVAAAEKPSTSPEIVLEPIKDFSGTITLPGSKSLSNRILLLAALSEGTTVVDNLLYSEDIHYMLGALRTLGLRVEDDKTTKQAIVEGCGGLFPTSKESKDEINLFLGNAGTAMRPLTAAVVAAGGNASYVLDGVPRMRERPIGDLVAGLKQLGADVDCFLGTNCPPVRVNGKGGLPGGKVKLSGSVSSQYLTALLMAAPLALGDVEIEIVDKLISVPYVEMTLKLMERFGVSVEHSGNWDRFLVHGGQKYKSPGNAFVEGDASSASYLLAGAAITGGTITVNGCGTSSLQGDVKFAEVLEKMGAKVTWSENSVTVSGPPRDFSGRKVLRGIDVNMNKMPDVAMTLAVVALFANGPTAIRDVASWRVKETERMIAICTELRKLGATVEEGPDYCVITPPEKLNVTAIDTYDDHRMAMAFSLAACGDVPVTIKDPGCTRKTFPDYFEVLERLTKH
B2: Triticum aestivum (wheat) EPSP synthase DGT-7 v5, native (GENBANK EU977181), SEQ ID NO: 60 (Triticum aestivum) (protein)
chain: MATSVAAPAAPSGAEEVVLQPIREISGAVQLPGSKSLSNRILLLSALSEGTTVVDNLLNSEDVHYMLEALEALGLSVEADKVAKRAVVVGCGGRFPVEKDAQEEVKLFLGNAGTAMRPLTAAVVAAGGNATYVLDGVPRMRERPIGDLVVGLQQLGADADCFLGTNCPPVRINGKGGLPGGKVKLSGSISSQYLSSLLMAAPLALEDVEIEIIDKLISVPYVEMTLKLMERFGVTAEHSDSWDRFYIKGGQKYKSPGNAYVEGDASSASYFLAGAAITGGTVTVEGCGTTSLQGDVKFAEVLEMMGAKVTWTDTSVTVTGPPRQPFGRKHLKAVDVNMNKMPDVAMTLAVVALFADGPTAIRDVASWRVKETERMVAIRTELTKLGATVEEGPDYCIITPPEKLNITAIDTYDDHRMAMAFSLAACAEVPVTIRDPGCTRKTFPNYFDVLSTFVKN
B3: Triticum aestivum (wheat) EPSP synthase DGT-7 variant DGT-7 v8 (T→I, P→S; TIPS) (Triticum aestivum; P172S/T168I) (protein)
chain: B2 chain with T114I, P118S
notes: TIPS double mutant
B4: Triticum aestivum (wheat) EPSP synthase DGT-7 variant DGT-7 v7 (G→A, P→S; GAPS) (Triticum aestivum; G167A/P172S) (protein)
chain: B2 chain with G113A, P118S
notes: GAPS double mutant
B5: Triticum aestivum (wheat) EPSP synthase DGT-7 variant DGT-7 v6 (G→A) (Triticum aestivum; G167A) (protein)
chain: B2 chain with G113A

Columns and labels:
[1] = substrate: C=C(OP(=O)(O)O)C(=O)O; test: purified protein, by the assay type; conditions: other: pH 7.5, 1 mM S3P
[2] = substrate: C=C(OP(=O)(O)O)C(=O)O; test: In vitro kinetic assay (inorganic phosphate production, malachite green); type: biochemical, Triticum aestivum; conditions: other: pH 7.5, 1 mM S3P
From the text: The following Class I enzymes: DGT-1 from Glycine max, DGT-3 from Brassica napus (GENBANK ACC NO: P17688), and DGT-7 from Triticum aestivum (GENBANK ACC NO: EU977181) were used as a comparison. The Class I EPSP synthase enzymes and mutant variants thereof were synthesized and evaluated. A mutation introduced into the plant EPSP synthase enzymes consisted of the Glycine to Alanine mutation made within the EPSP synthase enzyme at a similar location as that of the G96A mutation from the E. coli version of the enzyme. In addition, Threonine to Isoleucine and Proline to Serine mutations were introduced within these Class I EPSP synthase enzymes at analogous positions as that of amino acid 97 (T to I) and amino acid 101 (P to S) in the EPSP synthase of E. coli as described in Funke et al., (2009).
The location of the amino acid residue which was mutated from glycine to alanine is indicated by the first asterisk. The location of the amino acid residue which was mutated from threonine to isoleucine is indicated by the second asterisk. The location of the third amino acid residue which was mutated from proline to serine is indicated by the third asterisk. These mutations were introduced into different versions of DGT-1, DGT-3, and DGT-7. The different versions of the genes which contain the mutations are described in more detail below.
Additional constructs containing the dgt-1, dgt-3 and dgt-7 were synthesized. These constructs were used for in vitro testing of the dgt-1 v5, dgt-1 v6, dgt-1 v7, dgt-1 v8, dgt-3 v6, dgt-3 v7, dgt-3 v8, dgt-7 v5, dgt-7 v6, dgt-7 v7, and dgt-7 v8 gene sequences were outsourced to GeneArt for synthesis and cloning. The synthesized genes were cloned into the pET28 expression vector. The resulting constructions were labeled as pDAB102028 containing dgt-1 v5, pDAB102029 containing dgt-1 v6, pDAB102032 containing dgt-1 v7, pDAB102034 containing dgt-1 v8, pDAB100429 containing dgt-3 v6, pDAB100442 containing dgt-3 v7, pDAB100430 containing dgt-3 v8, pDAB102036 containing dgt-7 v5, pDAB102038 containing dgt-7 v6, pDAB102040 containing dgt-7 v7, and pDAB102042 containing dgt-7 v8.
Recombinant DGT proteins were overexpressed in Rosetta2™ (DE3) cells (Novagen, Madison, Wis.) from the constructs described above. A single colony was used to inoculate 50 mL starter cultures of LB containing chloramphenicol (25 μg/mL) and kanamycin (50 μg/mL) which were cultivated overnight at 37° C. The overnight cultures were used to inoculate 1 L of LB containing chloramphenicol (25 μg/mL) and kanamycin (50 μg/mL). The cultures were grown at 37° C. to an O.D.600=0.6 then placed in an ice water bath for 10 minutes. Expression of the target proteins was achieved by addition of IPTG to a final concentration of 500 μM. Induction was allowed to proceed overnight at 20° C. followed by harvesting via centrifugation at 8,000 rpm for 20 minutes. The cell pellets were stored at −80° C. until required for purification. All purification steps were carried out at 4° C.
Cell pellets from 1 L cultures were resuspended in 20-30 mL Buffer A (50 mM HEPES pH 7.5, 150 mM KCl, 2 mM DTT, 1 mM EDTA, 20 mM imidazole, and 5% glycerol). COMPLETE™ protease inhibitor cocktail (1 tablet/50 mL, Roche, Indianapolis, Ind.) and lysozyme (1 mg/mL, Sigma-Aldrich, St. Louis, Mo.) were then added and the suspension was stirred for 20 minutes. Cell lysis was performed using a Branson Sonifier 250 (3×60 second bursts) followed by removal of the cell debris by centrifugation at 16,000 rpm for 45 minutes. […]

Row | Protein | Km [1] | Km [2] | kcat/Km [2]
1 | B1 | 70 µM and 73.0 µM |  | 
2 | B2 | 75.6 µM |  | 
3 | B3 |  | 60.5 µM | 
4 | B4 |  | 1103.2 µM | 14600 M⁻¹ s⁻¹
5 | B5 |  | 538.2 µM | 16100 M⁻¹ s⁻¹

From patent US9873883B2, “Glyphosate resistant plants and associated methods” (Dow AgroSciences LLC, priority 2012, dated 2018)
